From article PMC6925387 (Life Science Alliance, 2019)

Experiments:
[1] = target: Cedar virus attachment glycoprotein (CedV-G), HA-tagged, expressed on the cell surface (Cedar virus); assay: flow cytometry on cells
[2] = target: T1, Ghana virus attachment glycoprotein (GhV-G), HA-tagged, expressed on the cell surface (Ghana virus, UniProt I0E093 1-632); assay: flow cytometry on cells; settings: one partner purified
T1 construct: also called Ghanaian bat henipavirus G; HNV-G; not shown: HA, C-terminal, kept
T1 sequence: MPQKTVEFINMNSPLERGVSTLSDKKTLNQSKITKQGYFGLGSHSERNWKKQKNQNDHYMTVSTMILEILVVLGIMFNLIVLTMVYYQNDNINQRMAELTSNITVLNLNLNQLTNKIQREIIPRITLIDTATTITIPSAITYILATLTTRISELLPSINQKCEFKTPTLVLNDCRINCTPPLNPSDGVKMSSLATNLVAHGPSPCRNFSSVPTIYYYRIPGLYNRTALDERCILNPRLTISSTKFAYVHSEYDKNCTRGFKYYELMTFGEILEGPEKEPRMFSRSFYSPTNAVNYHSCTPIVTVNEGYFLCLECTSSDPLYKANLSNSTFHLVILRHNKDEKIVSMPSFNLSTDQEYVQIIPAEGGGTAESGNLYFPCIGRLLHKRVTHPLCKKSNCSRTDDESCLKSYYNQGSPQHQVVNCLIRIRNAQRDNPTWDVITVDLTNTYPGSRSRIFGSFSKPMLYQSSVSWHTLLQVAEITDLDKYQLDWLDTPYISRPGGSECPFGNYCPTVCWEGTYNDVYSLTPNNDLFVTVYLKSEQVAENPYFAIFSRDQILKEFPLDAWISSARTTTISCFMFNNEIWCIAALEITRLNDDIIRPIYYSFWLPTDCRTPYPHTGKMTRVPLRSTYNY

[3] = target: T2, Hendra virus attachment glycoprotein (HeV-G), HA-tagged, expressed on the cell surface (Hendra virus, UniProt O89343 1-604); assay: flow cytometry on cells; settings: one partner purified
T2 construct: also called HNV-G; G of HeVpp; not shown: HA, C-terminal, kept
T2 sequence: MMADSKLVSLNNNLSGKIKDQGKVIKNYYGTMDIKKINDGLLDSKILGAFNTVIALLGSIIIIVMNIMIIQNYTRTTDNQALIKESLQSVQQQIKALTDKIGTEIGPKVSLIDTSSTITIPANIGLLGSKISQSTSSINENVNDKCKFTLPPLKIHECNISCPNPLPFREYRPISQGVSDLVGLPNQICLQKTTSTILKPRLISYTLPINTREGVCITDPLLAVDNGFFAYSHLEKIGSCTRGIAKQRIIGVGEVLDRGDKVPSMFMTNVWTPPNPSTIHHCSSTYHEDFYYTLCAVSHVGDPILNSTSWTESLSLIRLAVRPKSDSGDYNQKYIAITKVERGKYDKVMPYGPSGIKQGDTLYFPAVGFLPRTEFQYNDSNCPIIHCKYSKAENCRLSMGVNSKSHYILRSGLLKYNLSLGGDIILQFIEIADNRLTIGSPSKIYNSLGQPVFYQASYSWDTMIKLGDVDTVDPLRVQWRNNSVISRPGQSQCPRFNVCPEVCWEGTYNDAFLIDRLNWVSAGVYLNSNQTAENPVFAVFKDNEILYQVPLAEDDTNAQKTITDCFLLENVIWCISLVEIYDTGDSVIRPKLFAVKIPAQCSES

[4] = target: T3, Nipah virus attachment glycoprotein (NiV-G), HA-tagged, expressed on the cell surface (Nipah virus, UniProt Q9IH62 1-602); assay: flow cytometry on cells; settings: one partner purified
T3 construct: also called HNV-G; G of NiVpp
T3 sequence: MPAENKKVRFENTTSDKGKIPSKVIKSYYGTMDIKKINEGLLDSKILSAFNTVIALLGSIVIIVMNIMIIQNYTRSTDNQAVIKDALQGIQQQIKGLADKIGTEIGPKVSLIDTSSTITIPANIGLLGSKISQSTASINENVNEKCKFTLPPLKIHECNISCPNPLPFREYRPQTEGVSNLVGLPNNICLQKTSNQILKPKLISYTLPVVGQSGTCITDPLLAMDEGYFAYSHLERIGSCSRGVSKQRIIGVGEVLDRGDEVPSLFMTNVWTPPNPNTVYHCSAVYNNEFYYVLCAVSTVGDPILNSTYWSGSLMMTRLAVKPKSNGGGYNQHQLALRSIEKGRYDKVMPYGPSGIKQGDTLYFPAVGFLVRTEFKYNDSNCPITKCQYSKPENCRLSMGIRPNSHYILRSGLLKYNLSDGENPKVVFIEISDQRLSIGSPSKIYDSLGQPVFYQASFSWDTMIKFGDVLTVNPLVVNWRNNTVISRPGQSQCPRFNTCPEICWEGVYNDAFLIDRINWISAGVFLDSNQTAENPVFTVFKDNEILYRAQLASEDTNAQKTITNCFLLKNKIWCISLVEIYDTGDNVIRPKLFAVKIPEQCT

[5] = target: T4, CedV-G receptor-binding six-bladed β-propeller domain (residues 209–622) (Cedar virus, UniProt J7H333 209-622, high-mannose N-linked glycans (expression in the presence of kifunensine)); assay: crystal structure; settings: both partners purified
T4 sequence: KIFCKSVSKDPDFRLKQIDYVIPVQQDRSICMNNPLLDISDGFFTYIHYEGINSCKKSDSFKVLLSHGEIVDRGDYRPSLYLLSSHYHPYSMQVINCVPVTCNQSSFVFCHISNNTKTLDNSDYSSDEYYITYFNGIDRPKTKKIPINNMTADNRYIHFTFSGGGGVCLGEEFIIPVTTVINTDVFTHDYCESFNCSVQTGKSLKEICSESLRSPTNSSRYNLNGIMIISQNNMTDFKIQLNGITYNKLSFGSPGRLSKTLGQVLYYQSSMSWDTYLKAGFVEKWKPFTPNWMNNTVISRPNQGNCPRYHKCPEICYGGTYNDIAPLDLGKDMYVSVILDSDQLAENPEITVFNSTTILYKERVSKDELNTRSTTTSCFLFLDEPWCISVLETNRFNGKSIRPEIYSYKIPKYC

Molecule	Kd [1]	Kd [3]	Kd [4]	also measured
Soluble human ephrin-B1–Fc (from UniProt P98172) (Fc fusion)	4 nM			
Soluble human ephrin-B2–Fc (from UniProt P52799) (Fc fusion)	2.3 nM			
Soluble human ephrin-B2–Fc (Fc fusion, also called sEphrin-B2–Fc; ephrin-B–Fc; source: bought: R&D Systems) IVLEPIYWNSSNSKFLPGQGLVLYPQIGDKLDIICPKVDSKTVGQYEYYKVYMVDKDQADRCTIKKENTPLLNCAKPDQDIKFTIKFQEFSPNLWGLEFQKNKDYYIISTSNGSLEGLDNQEGGVCQTRAMKILMKVGQDASSAGSTRNKDPTRRPELEAGTNGRSSTTSPFVKPNPGSSTDGNSAGHSGNNILGSEVALFA		0.86 nM	1.4 nM	Kd [2]: 0.82 nM
Soluble human ephrin-B3–Fc (Fc fusion, also called sEphrin-B3–Fc; ephrin-B–Fc; source: bought: R&D Systems) LSLEPVYWNSANKRFQAEGGYVLYPQIGDRLDLLCPRARPPGPHSSPNYEFYKLYLVGGAQGRRCEAPPAPNLLLTCDRPDLDLRFTIKFQEYSPNLWGHEFRSHHDYYIIATSDGTREGLESLQGGVCLTRGMKVLLRVGQSPRGGAVPRKPVSEMPMERDRGAAHSLEPGKENLPGDPTSNATSRGAEGPLPPPSMP		5.3 nM	2 nM	
Human ephrin-B1 N-terminal extracellular domain (residues 29–167) (domain or fragment, high-mannose N-linked glycans (expression in the presence of kifunensine), also called extracellular β-barrel domain of human ephrin-B1; ephrin-B1 ectodomain) AKNLEPVSWSSLNPKFLSGKGLVIYPKIGDKLDIICPRAEAGRPYEYYKLYLVRPEQAAACSTVLDPNVLVTCNRPEQEIRFTIKFQEFSPNYMGLEFKKHHDYYITSTSNGSLEGLENREGGVCRTRTMKIIMKVGQD				stoichiometry N [5]: 1
